Test results taken from IntAct's records for PubMed 19822759.

Biological target: sc23a_mouse Sec23a (UniProt Q01405)
Sequence (Q01405 whole entry): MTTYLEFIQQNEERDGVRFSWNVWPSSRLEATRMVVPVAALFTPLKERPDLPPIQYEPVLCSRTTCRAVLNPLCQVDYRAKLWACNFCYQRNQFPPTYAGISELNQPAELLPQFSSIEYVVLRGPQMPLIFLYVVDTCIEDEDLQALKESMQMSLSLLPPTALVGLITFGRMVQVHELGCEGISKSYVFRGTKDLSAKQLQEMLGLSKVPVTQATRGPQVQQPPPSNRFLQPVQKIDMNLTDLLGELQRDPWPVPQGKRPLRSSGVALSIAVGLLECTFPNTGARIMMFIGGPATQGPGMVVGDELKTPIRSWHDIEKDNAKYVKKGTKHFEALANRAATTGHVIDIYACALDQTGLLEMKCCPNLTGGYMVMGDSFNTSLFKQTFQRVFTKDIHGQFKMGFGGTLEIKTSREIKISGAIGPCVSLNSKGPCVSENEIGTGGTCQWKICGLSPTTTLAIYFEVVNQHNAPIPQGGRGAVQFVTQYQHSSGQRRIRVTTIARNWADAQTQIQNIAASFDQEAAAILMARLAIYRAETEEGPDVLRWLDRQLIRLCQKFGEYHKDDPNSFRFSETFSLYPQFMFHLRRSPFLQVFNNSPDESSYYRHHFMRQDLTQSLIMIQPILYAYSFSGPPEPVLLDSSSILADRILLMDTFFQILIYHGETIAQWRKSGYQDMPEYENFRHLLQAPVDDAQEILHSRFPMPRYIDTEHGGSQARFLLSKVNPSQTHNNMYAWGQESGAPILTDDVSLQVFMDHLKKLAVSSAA

Small COPII coat GTPase SAR1A (Homo sapiens), Q9NR31 T39N
effect of a mutation on the interaction: disrupting interaction
